Substrate in data set [1]: Nc1nc2nc[nH]c2c(=O)[nH]1
The experiment in a line: purified protein, by the assay type. The following applies: PRib-PP 1 mM, pH 8.4, 25°C.

Substrate in data set [2]: O=c1[nH]c(=O)c2[nH]cnc2[nH]1
Put plainly: purified protein, by the assay type. The following applies: other: HGXPRT, PRib-PP 1 mM, pH 8.4, 25°C.

Substrate in data set [3]: O=c1[nH]cnc2nc[nH]c12
The experiment in a line: purified protein, by the assay type. The following applies: PRib-PP 1 mM, pH 8.4, 25°C.

Substrate in data set [4]: Nc1nc2nc[nH]c2c(=O)[nH]1
The experiment in a line: Steady-state kinetic constants of 6-oxopurine bases for HGPRT-I. Type of data set: biochemical, Trypanosoma brucei. To be noted: other: HGPRT-I, PRib-PP 1 mM, pH 8.4, 25°C. The protocol:
The concentration of enzyme in the assay (varied from 75–200 μg/ml for the two enzymes) and the concentration of PRib-PP was kept at 1 mM. The reaction was carried out using a 1.0 cm path length with a UV Visible spectrometer 1601 (Shimadzu) in the reaction buffer (0.1 M Tris, pH 8.4; 0.11 M MgCl2; at 25°C).

Several values for one entry are separate records, joined by “and”; a condition that tells them apart may be missing. Equal entries are not always repeated.

What is called Km is the concentration of substrate that gives half-maximal velocity. A word on the kcat: it is the number of substrate molecules converted per active site and unit of time at saturation. Usually kcat/Km stands for the second-order rate constant that governs catalysis at low substrate concentration.

B1: HGXPRT (Trypanosoma brucei brucei TREU927) (protein)
chain: HSGHPLKPNFVGRDADGNVTVDGRSYPMAESVVATESTIHRSMKEMAQTLANAYKTLKHRDTHNKGNSALAPITDENPLIIISVLKGSYIFTADMVRYLGDCGLPNVVDFIRITSYRGTTKSSGTVQVLDNLRFTELTGKHVLIMEDIADTGRTMKLLVEKIRREYRPASLKVCVLVDKPGGRVVDFKPEFVCLTAPTRYVVGYGFEVNDRYRNYRHVFVLKPEYAKRYPSKL
B1: the Michaelis-Menten constant (Km) in data set [1] (other: HGXPRT) came to 32 ± 4.8 µM. Further, in data set [2], the Km is 31.9 ± 7.5 µM, the kcat was 3.66 s⁻¹ and the specificity constant (kcat/Km) is 110000 M⁻¹ s⁻¹. Further, in data set [3] (other: HGXPRT), the Michaelis constant (Km) was 30.6 ± 7.8 µM, the catalytic constant (kcat) stood at 2.4 s⁻¹ and the specificity constant (kcat/Km) worked out at 80000 M⁻¹ s⁻¹.

B2: HGPRT-I (Trypanosoma brucei brucei) (protein)
chain: EPACKYDFATSVLFTEAELHTRMRGVAQRIADDYSNCNLKPLENPLVIVSVLKGSFVFTADMVRILGDFGVPTRVEFLRASSYGHDTKSCGRVDVKADGLCDIRGKHVLVLEDILDTALTLREVVDSLKKSEPASIKTLVAIDKPGGRKIPFTAEYVVADVPNVFVVGYGLDYDQSYREVRDVVILKPSVYETWGKELERRKAAGEAKR
notes: 6x His-tag (N); AcTEV cleavage site (N); made in house; host or cells: E. coli One Shot BL21(DE3)
Turning to B2, in data set [4], the Km was 16 µM and 15.9 ± 4.8 µM; the kcat is 0.38 s⁻¹; the specificity constant (kcat/Km) was found to be 20000 M⁻¹ s⁻¹. The Km in data set [3] (other: HGPRT-I) came out at 13.7 ± 2.9 µM.

B3: HGPRT-II (Trypanosoma brucei brucei TREU927) (protein)
chain: EPACKYDFATSVLFTEAELHTRMRGVAQRIADDYSNCNLKPLENPLVVVSVLRGSFVFTADMVRILGDFGVPTRVEFLRASSYGHDTKSCGRVDVKADGLCDIRGKHVLVLEDILDTALTLREVVDSLKKSEPASIKTLVAIDKPGGRKIPFTAEYVVADVPNVFVVGYGLDYDQSYREVRDVVILKPSVYETWGKELERRKAAVKAKL
For B3, the Km in data set [1] (other: HGPRT-II) amounted to 7.1 ± 1.8 µM. Also, in data set [3] (other: HGPRT-II), the Michaelis-Menten constant (Km) stood at 4.2 ± 0.9 µM, the catalytic constant (kcat) came to 0.03 s⁻¹ and the kcat/Km stood at 7000 M⁻¹ s⁻¹.

The record behind these values is PMC5843355, “Evaluation of the Trypanosoma brucei 6-oxopurine salvage pathway as a potential target for drug discovery” (PLoS Neglected Tropical Diseases, 2018).
